Experiment [1] deals with T1, human IL13Rα2 on cells (human, UniProt Q14627 27-380).
T1 construct: whole, on cells; also called hIL13Rα2
T1 sequence (looked up): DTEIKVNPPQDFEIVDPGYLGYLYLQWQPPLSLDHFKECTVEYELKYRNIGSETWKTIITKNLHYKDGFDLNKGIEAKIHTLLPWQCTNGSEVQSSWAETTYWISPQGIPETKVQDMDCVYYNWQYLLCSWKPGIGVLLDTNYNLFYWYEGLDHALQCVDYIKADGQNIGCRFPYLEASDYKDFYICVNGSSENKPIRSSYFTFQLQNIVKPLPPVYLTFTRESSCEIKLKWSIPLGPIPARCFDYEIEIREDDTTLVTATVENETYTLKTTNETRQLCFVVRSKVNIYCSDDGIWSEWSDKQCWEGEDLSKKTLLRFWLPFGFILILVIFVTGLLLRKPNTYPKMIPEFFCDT
The experiment is described as follows: flow cytometry control; cell line not stated.

The target of experiment [2] is T2, recombinant human IL13Rα2 fused to an Fc domain of human IgG1 (hIL13Rα2-Fc) (human, UniProt Q14627 27-343, limits assumed).
T2 construct: Bought construct (R&D Systems); The Fc can be removed by Factor Xa, so a Factor Xa site lies between the parts; not shown: Fc domain of human IgG1
T2 sequence (looked up): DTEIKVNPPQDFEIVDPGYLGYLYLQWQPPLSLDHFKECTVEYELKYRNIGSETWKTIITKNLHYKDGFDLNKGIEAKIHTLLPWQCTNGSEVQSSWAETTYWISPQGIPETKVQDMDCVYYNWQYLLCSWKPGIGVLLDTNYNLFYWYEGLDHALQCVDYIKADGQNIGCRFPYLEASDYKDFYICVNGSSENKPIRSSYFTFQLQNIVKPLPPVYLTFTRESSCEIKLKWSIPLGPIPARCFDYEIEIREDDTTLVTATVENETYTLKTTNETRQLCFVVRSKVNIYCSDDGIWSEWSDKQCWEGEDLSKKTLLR
The experiment is described as follows: Octet KD relative to clone 1 parental. The method, then:
(§1) Two clones were chosen for humanization. […] Each humanized nanobody was analyzed by Octet at 500 nM on an Ni-NTA sensor, with three fold dilutions of antigen (IL13Rα2-Fc) at 125 nM, 41.66 nM, and 13.86 nM. A summary of the octed measurements for each of the humanized variants depicted in FIG. 1 is shown in Table 1 (clone 1) and Table 2 (clone 2).

In experiment [3] the target is T2, recombinant human IL13Rα2 fused to an …. The experiment is described as follows: Octet (BLI); nanobody on Ni-NTA sensor, IL13Rα2-Fc in solution. On the procedure: as §1
Experiment [4] has as its target T1, human IL13Rα2 on cells. The experiment is described as follows: flow cytometry; cell line not stated.

Changes are numbered by the printed parent chain.

Turning to “2o Ab (secondary antibody alone, flow cytometry control)”, the Flow Cytometry MFI with human IL13Rα2 on cells [1] was 90.4 MFI.

In the experiment with human IL13Rα2 on cells [1], “Isotype Control (flow cytometry control) (antibody)” came in with a Flow Cytometry MFI of 21.4 MFI.

B1: Humanized Llama single domain anti-IL13Rα2 Clone 1-h10 (H2-LSD1) (VHH)
VHH: EVQLVESGGGLVQPGGSLRLSCAASGFTSDYYIMGWVRQAPGKGLEWVSCISSKYANTYYADSVKGRFTISRDNAKNTLYLQMNSLRPEDTAVYYCAADTRRYTCPDIATMHRNFDSWGQGTLVTVSS
notes: Captured on a Ni-NTA sensor, so a His tag is implied; the tag is not described
On to B1, for which the KD fold difference in experiment [2] turned out to be 2.3 fold. Moreover, the Kd in experiment [3] was found to be 1.46 nM. Besides, in the experiment with human IL13Rα2 on cells [4], the “Flow Cytometry MFI” value was found to be 639 MFI.

B2: anti-IL13Rα2 Clone 1 humanized variant 1-h9 (VHH)
VHH: B1 VHH with V37F
On to B2, for which the KD fold difference in experiment [2] was found to be 3 fold. For the same molecule, the Kd in experiment [3] turned out to be 1.91 nM. In the experiment with human IL13Rα2 on cells [4], the “Flow Cytometry MFI” value was 842 MFI.

For the origin of these results see US20210315933A1 (TCR2 THERAPEUTICS, published 2021).
